Experimental data: article doi:10.1101/2023.03.16.532763 (bioRxiv, 2023)

Target: purified full-length Polθ (UniProt O75417 1-2590)
Assay: co-IP

purified full-length Polθ, sequence (O75417 whole entry): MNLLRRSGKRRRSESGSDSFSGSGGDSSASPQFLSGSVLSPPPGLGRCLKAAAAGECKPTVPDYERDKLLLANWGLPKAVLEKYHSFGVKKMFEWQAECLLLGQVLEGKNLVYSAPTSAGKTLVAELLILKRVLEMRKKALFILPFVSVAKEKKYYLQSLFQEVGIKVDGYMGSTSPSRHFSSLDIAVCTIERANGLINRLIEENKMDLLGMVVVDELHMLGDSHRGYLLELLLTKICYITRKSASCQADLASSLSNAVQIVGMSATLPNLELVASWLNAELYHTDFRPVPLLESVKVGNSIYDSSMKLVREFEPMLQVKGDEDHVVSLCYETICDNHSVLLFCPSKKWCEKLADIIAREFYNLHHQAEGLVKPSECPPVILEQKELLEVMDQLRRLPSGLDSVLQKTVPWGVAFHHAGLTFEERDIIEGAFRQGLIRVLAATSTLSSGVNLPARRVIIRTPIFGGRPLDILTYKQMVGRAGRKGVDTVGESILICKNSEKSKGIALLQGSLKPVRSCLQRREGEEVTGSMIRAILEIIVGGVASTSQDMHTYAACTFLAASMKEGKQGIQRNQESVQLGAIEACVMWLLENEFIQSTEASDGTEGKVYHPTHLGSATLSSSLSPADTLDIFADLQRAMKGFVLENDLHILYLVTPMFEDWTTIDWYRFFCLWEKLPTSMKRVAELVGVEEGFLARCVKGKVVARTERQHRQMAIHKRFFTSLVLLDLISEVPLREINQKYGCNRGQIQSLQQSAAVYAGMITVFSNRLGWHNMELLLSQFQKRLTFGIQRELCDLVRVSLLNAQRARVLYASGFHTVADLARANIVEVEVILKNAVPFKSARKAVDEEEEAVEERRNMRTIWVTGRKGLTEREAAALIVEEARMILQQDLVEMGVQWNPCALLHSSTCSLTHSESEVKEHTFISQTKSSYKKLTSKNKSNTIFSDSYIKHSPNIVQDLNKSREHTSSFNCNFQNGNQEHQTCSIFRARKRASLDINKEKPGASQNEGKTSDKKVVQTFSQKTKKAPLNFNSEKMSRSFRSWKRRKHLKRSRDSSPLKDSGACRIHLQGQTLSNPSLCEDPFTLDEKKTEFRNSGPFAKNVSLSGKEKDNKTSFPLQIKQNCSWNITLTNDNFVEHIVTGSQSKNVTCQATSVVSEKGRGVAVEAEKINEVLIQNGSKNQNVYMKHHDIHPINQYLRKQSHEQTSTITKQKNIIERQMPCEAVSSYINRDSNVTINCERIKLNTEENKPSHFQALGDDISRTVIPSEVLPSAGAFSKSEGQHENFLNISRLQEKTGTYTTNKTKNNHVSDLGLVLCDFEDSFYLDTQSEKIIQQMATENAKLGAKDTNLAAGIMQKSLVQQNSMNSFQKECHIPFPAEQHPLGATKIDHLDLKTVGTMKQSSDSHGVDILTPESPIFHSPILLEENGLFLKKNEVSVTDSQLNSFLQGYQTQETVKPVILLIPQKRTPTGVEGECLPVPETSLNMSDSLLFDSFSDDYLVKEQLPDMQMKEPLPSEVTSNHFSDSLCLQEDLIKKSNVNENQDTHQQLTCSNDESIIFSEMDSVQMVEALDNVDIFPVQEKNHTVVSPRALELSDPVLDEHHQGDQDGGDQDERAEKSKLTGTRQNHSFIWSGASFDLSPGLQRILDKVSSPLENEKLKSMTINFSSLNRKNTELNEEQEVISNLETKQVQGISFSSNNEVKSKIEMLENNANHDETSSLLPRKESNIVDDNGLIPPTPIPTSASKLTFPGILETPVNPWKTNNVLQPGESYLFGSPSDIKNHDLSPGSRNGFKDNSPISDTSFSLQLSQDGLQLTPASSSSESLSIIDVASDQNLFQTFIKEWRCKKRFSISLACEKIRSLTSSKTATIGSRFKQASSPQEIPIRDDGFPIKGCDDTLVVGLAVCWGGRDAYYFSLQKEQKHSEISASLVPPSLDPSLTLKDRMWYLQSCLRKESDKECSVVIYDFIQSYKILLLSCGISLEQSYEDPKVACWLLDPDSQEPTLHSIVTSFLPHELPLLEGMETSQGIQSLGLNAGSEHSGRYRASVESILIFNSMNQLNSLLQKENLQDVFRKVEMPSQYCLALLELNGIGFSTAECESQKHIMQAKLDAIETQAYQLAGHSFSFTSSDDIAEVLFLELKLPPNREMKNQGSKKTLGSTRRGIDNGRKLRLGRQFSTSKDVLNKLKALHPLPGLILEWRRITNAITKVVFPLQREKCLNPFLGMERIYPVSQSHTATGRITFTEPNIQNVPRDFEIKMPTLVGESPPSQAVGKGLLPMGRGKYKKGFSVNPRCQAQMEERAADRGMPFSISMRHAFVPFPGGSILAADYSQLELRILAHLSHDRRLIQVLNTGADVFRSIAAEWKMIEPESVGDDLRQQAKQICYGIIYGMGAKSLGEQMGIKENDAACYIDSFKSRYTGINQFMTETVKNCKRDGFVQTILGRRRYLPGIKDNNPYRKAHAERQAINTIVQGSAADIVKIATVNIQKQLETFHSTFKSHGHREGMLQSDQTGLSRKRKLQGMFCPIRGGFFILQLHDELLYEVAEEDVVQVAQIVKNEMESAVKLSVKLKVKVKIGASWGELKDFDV

B1: purified recombinant human RHINO protein (natural protein, UniProt Q9BSD3 1-238, looked up)
chain: MPPRKKRRQPSQKAPLLFHQQPLEGPKHSCASTQLPITHTRQVPSKPIDHSTITSWVSPDFDTAAGSLFPAYQKHQNRARHSSRKPTTSKFPHLTFESPQSSSSETLGIPLIRECPSESEKDVSRRPLVPVLSPQSCGNMSVQALQSLPYVFIPPDIQTPESSSVKEELIPQDQKENSLLSCTLHTGTPNSPEPGPVLVKDTPEDKYGIKVTWRRRQHLLAYLRERGKLSRSQFLVKS
binding result: binds
